Holding throughout (assay): cell-based or functional assay
Experiment [1] has as its target cellular proteins integrins.
In experiment [2] the target is EGFR-Ecoil pseudoreceptor (UniProt P00533).
Experiment [3] has as its target EGFR-Ecoil pseudoreceptor (UniProt P00533 646-1210).

In experiment [1], “Modified fiber FK4mm-RGD of AdFK4mmRGD/GFP (S->E at aa 408, P->A at aa 409, RGD motif in the HI-loop, K4 K-coil at the C-terminus) (from UniProt P11818 1-581)” returned a transduction efficiency of AdFK4mmRGD/GFP in HeLa-rtTA and A549-tTA cells relative to AdFK4m/GFP (GFP expression, flow cytometry) of 3 to 6 fold; a transduction of 293E cells by AdFK4mmRGD/GFP relative to AdFK4m/GFP (GFP expression, flow cytometry) of 2 to 3 times.

In experiment [2], K-coil soluble peptide registered an inhibition of AdFK4m/GFP mediated GFP gene transfer in 293E cells after pre-incubation with 2 ug K-coil soluble peptide, MOI 0.05 of 80%.

B1: Chimeric adenoviral fiber FK4m of AdFK4m/GFP (S->E at aa 408, K4 K-coil at the C-terminus) (other)
chain (part 1 of 2): MKRARPSEDTFNPVYPYDTETGPPTVPFLTPPFVSPNGFQESPPGVLSLRLSEPLVTSNGMLALKMGNGLSLDEAGNLTSQNVTTVSPPLKKTKSNINLEISAPLTVTSEALTVAAAAPLMVAGNTLTMQSQAPLTVHDSKLSIATQGPLTVSEGKLALQTSGPLTTTDSSTLTITASPPLTTATGSLGIDLKEPIYTQNGKLGLKYGAPLHVTDDLNTLTVATGPGVTINNTSLQTKVTGALGFDSQGNMQLNVAGGLRIDSQNRRLILDVSYPFDAQNQLNLRLGQGPLFINSAHNLDINYNKGLYLFTASNNSKKLEVNLSTAKGLMFDATAIAINAGDGLEFGSPNAPNTNPLKTKIGHGLEFDSNKAMVPKLGTGLSFDSTGAITVGNKNNDKLTLWTTPAPEPNCRLNAEKDAKLTLVLTKCGSQILATVSVLAVKGSLAPISGTVQSAHLIIRFDENGVLLNNSFLDPEYWNFRNGDLTEGTAYTNAVGFMPNLSAYPKSHGKTAKSNIVSQVYLNGDKTKPVTLTITLNGTQETGDTTPSAYSMSFSWDWSGHNYINEIFATSSYTFSYIAQE
chain (part 2 of 2): KVSALKEKVSALKEKVSALKEKVSALKE
B1: in experiment [3], the “transduction efficiency (GFP expression, flow cytometry) of AdFK4m/GFP in 293E cells compared with 293 cells, MOI 0.01” value was found to be 7 fold; the “transduction efficiency (GFP expression, flow cytometry) of AdFK4m/GFP in 293E cells compared with 293 cells, MOI 0.05” value is 24 fold; the “transduction efficiency (GFP expression, flow cytometry) of AdFK4m/GFP in 293E cells compared with 293 cells, MOI 0.5” value amounted to 11 fold; the “transduction efficiency (GFP expression, flow cytometry) of AdFK4m/GFP in 293E cells compared with 293 cells, MOI 0.8” value is 8 fold.

The values above are taken from US20070104732A1 (published 2007).
